In publication PMC6534667:

Molecular target: scFv PL2-6 (single-chain antibody variable fragment);Histone octamer H3 (H2A, H2B, H3, H4) (Mus musculus (mouse mAb PL2-6);Drosophila) (UniProt P84051+P02283+P02299+P84040)
Assay: ITC
Conditions: ITC: 20 mM Tris-HCl pH 7.4, 50 mM NaCl, 1 mM EDTA, 25 C; EMSA: 10 mM Tris pH 7.4, 1 mM EDTA, 30 mM NaCl, 1% Ficoll 6000, on ice 10 min, 5% acrylamide gel in …

## 147 bp Widom 601 DNA (W601)
  Kd: 190 nM
